{
  "source": "IntAct's records for PubMed 12058072",
  "parents": {"B1": {"name": "Serine/threonine-protein kinase GIN4 (Saccharomyces cerevisiae), Q12263 (parent)", "chain": "MAINGNSIPAIKDNTIGPWKLGETLGLGSTGKVQLARNGSTGQEAAVKVISKAVFNTGNVSGTSIVGSTTPDALPYGIEREIIIMKLLNHPNVLRLYDVWETNTDLYLVLEYAEKGELFNLLVERGPLPEHEAIRFFRQIIIGVSYCHALGIVHRDLKPENLLLDHKYNIKIADFGMAALETEGKLLETSCGSPHYAAPEIVSGIPYQGFASDVWSCGVILFALLTGRLPFDEEDGNIRTLLLKVQKGEFEMPSDDEISREAQDLIRKILTVDPERRIKTRDILKHPLLQKYPSIRDSKSIRGLPREDTYLTPLSESNSSIDATILQNLVILWHGRDPEGIKEKLREPGANAEKTLYALLYRFKCDTQKELIKQQQVKKRQSISSVSVSPSKKVSTTPQRRRNRESLISVTSSRKKPISFNKFTASSASSSNLTTPGSSKRLSKNFSSKKKLSTIVNQSSPTPASRNKRASVINVEKNQKRASIFSTTKKNKRSSRSIKRMSLIPSMKRESVTTKLMSTYAKLAEDDDWEYIEKETKRTSSNFATLIDEIFEYEKYEQIRKEKEELERKVREAKAREELERRRRKQEEKERARKLLEKEDLKRKQEELKKQIEIDISDLEQELSKHKEEKLDGNIRSISAPMENEEKNINHLEVDIDNILRRRNFSLQTRPVSRLDPGIMFSSPTEEVSPVEPKRTENERLTTEKKILETIRRSKFLGSSFNIDKELKLSKMEYPSIIAPQRLSEERVVSDSNDGYESLILPKDGNGVSQLKDSTATTAPVSDGRLRKISEIRVPQFTRKSRHFSESNKRLSVLSMYSTKESFTNLVDILKNGNLDVNNQQSQRIPTPRSADDSEFLFETVNEEAEYTGNSSNDERLYDVGDSTIKDKSALKLNFADRFNGSNEAKQTDNLHLPILPPLNGDNELRKQNSQEGDQAHPKIKSMIPESGSSSHTEKEEENEEKEEKKPEQHKQEEDQEKREKVVDDMEPPLNKSVQKIREKNAGSQAKDHSKDHLKEHKQDKNTAIGNGSFFRKFSKSSDKTMELYAKISAKQLFNGLEKLLRGWTQYGLKNIKSHPNNLTLTGKLSSDNIFSLRSTLFEVNIYPRGKMSVVQFKKVSGSFKAVKKLVNEVENVLNKEGVLQK", "partner": "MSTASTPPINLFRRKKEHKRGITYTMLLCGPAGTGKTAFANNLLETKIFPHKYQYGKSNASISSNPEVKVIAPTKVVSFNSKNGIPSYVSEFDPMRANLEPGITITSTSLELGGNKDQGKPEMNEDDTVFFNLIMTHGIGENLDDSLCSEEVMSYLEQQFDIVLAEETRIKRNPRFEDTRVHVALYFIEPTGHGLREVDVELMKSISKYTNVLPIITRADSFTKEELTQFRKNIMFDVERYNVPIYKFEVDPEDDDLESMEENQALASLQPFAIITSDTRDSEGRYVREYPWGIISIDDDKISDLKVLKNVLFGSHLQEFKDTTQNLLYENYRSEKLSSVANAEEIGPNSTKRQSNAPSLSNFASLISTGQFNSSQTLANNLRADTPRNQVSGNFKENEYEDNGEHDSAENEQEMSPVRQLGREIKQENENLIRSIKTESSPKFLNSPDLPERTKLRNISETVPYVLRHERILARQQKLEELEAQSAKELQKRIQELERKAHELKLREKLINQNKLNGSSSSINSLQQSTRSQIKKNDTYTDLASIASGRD"}},
  "data": [
    {"variants_of": "B1", "details": "with shs1_yeast SHS1, Q07657", "values": [
      {"variant": "K48A", "effect of a mutation on the interaction": "disrupting interaction"}
    ]}
  ]
}
